Experimental data as given in IntAct's records for PubMed 35266954.

B1: Probable E3 ubiquitin-protein ligase MID2 (Homo sapiens), Q9UJV3 (parent)
chain: MGESPASVVLNASGGLFSLKMETLESELTCPICLELFEDPLLLPCAHSLCFSCAHRILVSSCSSGESIEPITAFQCPTCRYVISLNHRGLDGLKRNVTLQNIIDRFQKASVSGPNSPSESRRERTYRPTTAMSSERIACQFCEQDPPRDAVKTCITCEVSYCDRCLRATHPNKKPFTSHRLVEPVPDTHLRGITCLDHENEKVNMYCVSDDQLICALCKLVGRHRDHQVASLNDRFEKLKQTLEMNLTNLVKRNSELENQMAKLIQICQQVEVNTAMHEAKLMEECDELVEIIQQRKQMIAVKIKETKVMKLRKLAQQVANCRQCLERSTVLINQAEHILKENDQARFLQSAKNIAERVAMATASSQVLIPDINFNDAFENFALDFSREKKLLEGLDYLTAPNPPSIREELCTASHDTITVHWISDDEFSISSYELQYTIFTGQANFISKSWCSWGLWPEIRKCKEAVSCSRLAGAPRGLYNSVDSWMIVPNIKQNHYTVHGLQSGTRYIFIVKAINQAGSRNSEPTRLKTNSQPFKLDPKMTHKKLKISNDGLQMEKDESSLKKSHTPERFSGTGCYGAAGNIFIDSGCHYWEVVMGSSTWYAIGIAYKSAPKNEWIGKNASSWVFSRCNSNFVVRHNNKEMLVDVPPHLKRLGVLLDYDNNMLSFYDPANSLHLHTFDVTFILPVCPTFTIWNKSLMILSGLPAPDFIDYPERQECNCRPQESPYVSGMKTCH

Variants of: B1
Details: with lrrk2_human LRRK2, Q5S007
Sequence of lrrk2_human LRRK2, Q5S007 (Q5S007 whole entry): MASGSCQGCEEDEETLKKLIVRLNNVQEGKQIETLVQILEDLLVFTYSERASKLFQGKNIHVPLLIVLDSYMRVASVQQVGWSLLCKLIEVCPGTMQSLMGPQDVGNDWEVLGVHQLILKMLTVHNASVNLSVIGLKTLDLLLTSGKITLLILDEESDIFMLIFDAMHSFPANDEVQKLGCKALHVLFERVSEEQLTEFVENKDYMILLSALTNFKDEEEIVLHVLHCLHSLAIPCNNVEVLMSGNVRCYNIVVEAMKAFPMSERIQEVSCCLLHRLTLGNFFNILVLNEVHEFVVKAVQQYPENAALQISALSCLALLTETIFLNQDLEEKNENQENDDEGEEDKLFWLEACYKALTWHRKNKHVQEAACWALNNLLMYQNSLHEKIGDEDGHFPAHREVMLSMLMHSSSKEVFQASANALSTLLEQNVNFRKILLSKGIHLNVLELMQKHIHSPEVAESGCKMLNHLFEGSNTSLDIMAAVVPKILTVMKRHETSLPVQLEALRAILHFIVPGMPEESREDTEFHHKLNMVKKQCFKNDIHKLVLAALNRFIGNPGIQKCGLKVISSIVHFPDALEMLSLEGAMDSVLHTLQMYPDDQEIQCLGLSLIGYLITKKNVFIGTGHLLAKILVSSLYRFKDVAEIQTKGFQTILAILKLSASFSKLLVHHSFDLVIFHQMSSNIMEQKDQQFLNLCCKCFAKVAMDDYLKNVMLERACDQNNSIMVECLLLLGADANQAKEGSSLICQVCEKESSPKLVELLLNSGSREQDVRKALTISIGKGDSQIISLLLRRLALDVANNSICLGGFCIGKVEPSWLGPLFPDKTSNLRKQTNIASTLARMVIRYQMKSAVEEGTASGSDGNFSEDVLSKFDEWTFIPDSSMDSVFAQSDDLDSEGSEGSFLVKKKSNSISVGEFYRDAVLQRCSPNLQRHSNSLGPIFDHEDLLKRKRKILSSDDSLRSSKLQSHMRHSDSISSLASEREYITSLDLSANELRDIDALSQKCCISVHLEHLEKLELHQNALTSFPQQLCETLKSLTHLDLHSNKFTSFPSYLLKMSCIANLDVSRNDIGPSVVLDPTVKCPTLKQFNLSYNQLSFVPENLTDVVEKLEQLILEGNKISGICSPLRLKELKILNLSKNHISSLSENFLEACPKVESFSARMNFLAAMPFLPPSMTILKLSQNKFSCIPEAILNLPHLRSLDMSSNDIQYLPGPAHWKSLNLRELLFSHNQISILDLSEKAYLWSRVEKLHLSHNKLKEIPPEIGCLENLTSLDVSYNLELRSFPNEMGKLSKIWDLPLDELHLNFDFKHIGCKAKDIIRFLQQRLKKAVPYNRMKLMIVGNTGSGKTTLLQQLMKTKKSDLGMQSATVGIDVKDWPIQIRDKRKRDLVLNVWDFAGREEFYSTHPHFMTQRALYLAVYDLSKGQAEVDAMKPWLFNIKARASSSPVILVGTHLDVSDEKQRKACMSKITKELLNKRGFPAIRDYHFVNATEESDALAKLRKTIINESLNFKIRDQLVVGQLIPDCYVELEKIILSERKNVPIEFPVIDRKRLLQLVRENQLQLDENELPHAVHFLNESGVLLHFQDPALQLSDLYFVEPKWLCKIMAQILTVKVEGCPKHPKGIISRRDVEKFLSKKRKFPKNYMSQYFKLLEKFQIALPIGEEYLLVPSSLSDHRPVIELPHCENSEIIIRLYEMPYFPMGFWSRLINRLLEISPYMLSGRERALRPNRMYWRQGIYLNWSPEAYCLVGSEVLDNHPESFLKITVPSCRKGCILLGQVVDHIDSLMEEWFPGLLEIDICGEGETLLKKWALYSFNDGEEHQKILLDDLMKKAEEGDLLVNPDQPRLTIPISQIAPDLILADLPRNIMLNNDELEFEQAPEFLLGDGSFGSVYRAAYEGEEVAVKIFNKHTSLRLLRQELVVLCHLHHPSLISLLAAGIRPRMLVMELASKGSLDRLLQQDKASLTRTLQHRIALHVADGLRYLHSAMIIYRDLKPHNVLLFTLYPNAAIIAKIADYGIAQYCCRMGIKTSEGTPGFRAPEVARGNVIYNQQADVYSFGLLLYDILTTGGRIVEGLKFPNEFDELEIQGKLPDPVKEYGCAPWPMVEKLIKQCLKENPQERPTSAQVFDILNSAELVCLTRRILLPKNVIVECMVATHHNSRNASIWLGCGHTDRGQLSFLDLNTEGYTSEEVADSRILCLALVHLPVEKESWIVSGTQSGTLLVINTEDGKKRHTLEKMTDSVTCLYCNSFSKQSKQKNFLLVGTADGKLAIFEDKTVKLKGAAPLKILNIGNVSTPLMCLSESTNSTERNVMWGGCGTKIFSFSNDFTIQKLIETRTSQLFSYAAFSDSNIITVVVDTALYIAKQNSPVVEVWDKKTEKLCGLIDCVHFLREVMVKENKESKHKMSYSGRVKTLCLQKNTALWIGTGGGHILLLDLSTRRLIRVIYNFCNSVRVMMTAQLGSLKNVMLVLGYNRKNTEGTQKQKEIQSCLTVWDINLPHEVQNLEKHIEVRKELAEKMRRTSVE

effect of a mutation on the interaction	Variant
with no effect	F348A;L349A;Q350A;L396A;D397A;Y398A
